Data set [1] has as its system mice. The note with it: mice (Lewis, 1996); cited from earlier work.
Data set [2] deals with guinea pigs. Kind of data set: Succinylcholine lethality in guinea pigs. Format: in vivo. The note with it: intravenous. An excerpt: To further understand the effect and kinetics of BChE-mediated SC detoxification using continuous vital sign monitoring, the inventors moved to a larger rodent model of SC toxicity. […] At no point following loss of measurable pulse and venous oxygen saturation did these signs return in animals receiving SC 0.9% saline.

The conditions of data set [3]: previously published (Lockridge, 1990), thioester analog assay, cited from earlier work.
For data set [4] the following is noted: reported value (Sun et al., 2002); read-out: KM, cocaine hydrolysis; cited from earlier work.
For data set [5], the system named is SC-induced apnea. In words: Reversal of succinylcholine-induced apnea in guinea pigs. Format: in vivo, Male Hartley guinea pigs (Cavia porcellus). The procedure: Guinea pig experiments were conducted as follows. Male Hartley guinea pigs (Cavia porcellus, 8 weeks old) were anesthetized with 90 mg/kg ketamine and 10 mg/kg xylazine. Once anesthetized, baseline heart rate (beats per minute) and Sp02 (%) were obtained using a Surgivet Plus Veterinary Anesthesia and Monitoring Module, model #V3404. Guinea pigs were then injected intravenously (leg vein) with 0.334 mg/kg SC (time 0). Heart rate and Sp02 were obtained every minute throughout the course of the experiment. At time+1 min, groups of three apneic guinea pigs were injected with either pBChE (0.19 mg/kg, ˜48 Upper animal) in 0.9% saline (or 0.9% saline vehicle control). At time+15 minutes all surviving guinea pigs were euthanized by CO2 asphyxiation and subsequent cervical dislocation. As above, guinea pigs received no additional care or therapy during experimentation.
Statistical significance of differences between means of heart rate and Sp02 was tested using 1-way analysis of variance (ANOVA) followed by Bonferronits Multiple Comparison Test.

The subject of data set [6] is SC-induced apnea. In words: Reversal of succinylcholine-induced apnea in mice. Format: in vivo, Male FVB/N mice (Mus musculus). The procedure: Mouse experiments were conducted as follows. Male FVB/N mice (Mus musculus, 8-12 weeks old) were anesthetized by injection of ketamine/xylazine/acepromazide cocktail at the dose of 0.05 mL per 25 g of total body weight (concentrations were, respectively 21 mg/mL, 2.4 mg/mL, and 0.3 mg/mL). Anesthetized mice were assessed for respiratory rate by counting respirations for 30 seconds using a Littman model 3000 electronic stethoscope placed on the mouse left mid axillary line and extrapolating the per minute rate. Mice were then injected intravenously (tail vein) with 1 mg/kg succinylcholine (time 0 min). At time+3 min mice were injected with pBChE (0.6 mg/kg, ˜15 Upper animal) in 0.9% saline (or 0.9% saline vehicle control) and respiratory rate was obtained as above at the indicated time points. At time+15 minutes all surviving mice were euthanized by CO2 asphyxiation and subsequent cervical dislocation. At no time during the experiment did the mice receive any other therapy including, but not limited to, airway protection/management, artificial ventilations, compressions, or any pharmacological assistance.
Statistical analyses were carried out using the GraphPad Prism software. Log-rank (Mantel-Cox) test was used to determine significance of the difference between survival curves.

Data set [7] is described as follows: Succinylcholine hydrolase activity assay (96-well, choline oxidase/peroxidase). Format: biochemical. The procedure: Assay of butyrylcholine hydrolysis followed the method of Ellman as described in (Geyer et al., 2010). Succinylcholine hydrolase activity was monitored by the method of George and co-workers (George et al., 1988) with modifications to fit a 96-well plate format. Briefly, our standard succinylcholine-hydrolysis buffer contained 100 mM NaH2PO4/Na2HPO4 buffer pH 7.5, 0.77 mM phenol, 0.15 mM 4-aminoantipyrine, 1 U/mL choline oxidase, and 1.2 U/mL horse raddish peroxidase type I. Appropriate volumes of 10× stock solutions (in 100 mM NaH2PO4/Na2HPO4 buffer pH 7.5) were pre-mixed and dispensed at 160 μL aliquotes onto 96-well plates followed by addition of the substrate succinylcholine chloride (20 μl, final concentrations as indicated). Reactions were started by addition of pBChE (4.74 nM) to yield a final well volume of 200 μl. Hydrolysis was monitored by recording absorbance changes at 500 nm. Self hydrolysis rates were measured on samples that contained no enzyme and were subtracted from the enzymatically catalyzed reaction rates. A choline standard curve was similarly created by using the same assay except that choline chloride replaced succinylcholine (final concentration range of 10-100 μM).
Kinetic analysis was done according to Radic et al. (Radic et al., 1993) as follows. Initial enzyme velocity, V0, was plotted as a function of substrate concentration and the results were fitted by nonlinear regression using GraphPad Prism to the following equation: […]
where [SC] is the concentration of SC, Vmax is maximal velocity, KM is the Michaelis-Menten constant, KSS is the dissociation constant of substrate from the enzyme's peripheral binding site, and b a factor that reflect the efficiency of hydrolysis of the substrate in the presence of another substrate molecule bound at the peripheral site (with substrate activation when b>1).

Where [8] appears, read: 0.334 mg/kg SC i.v., 48 U BChE at 1 min, 3 min following SC injection.

“Also recorded” adds a separate entry of the source. Read-outs that look alike come from different tables or passages of the source.

As a reminder, the LD50 is the dose expected to kill half of the subjects tested. Consider `C[N+](C)(C)CCOC(=O)CCC(=O)OCC[N+](C)(C)C` [SC, succinylcholine], for which the LD50 in data set [1] is reported as 0.28 mg/kg. The molecule also had an LD100 in data set [2] of 0.334 mg/kg.

B1: WT BChE (protein, UniProt P06276 29-602, looked up)
Cholinesterase: EDDIIIATKNGKVRGMNLTVFGGTVTAFLGIPYAQPPLGRLRFKKPQSLTKWSDIWNATKYANSCCQNIDQSFPGFHGSEMWNPNTDLSEDCLYLNVWIPAPKPKNATVLIWIYGGGFQTGTSSLHVYDGKFLARVERVIVVSMNYRVGALGFLALPGNPEAPGNMGLFDQQLALQWVQKNIAAFGGNPKSVTLFGESAGAASVSLHLLSPGSHSLFTRAILQSGSFNAPWAVTSLYEARNRTLNLAKLTGCSRENETEIIKCLRNKDPQEILLNEAFVVPYGTPLSVNFGPTVDGDFLTDMPDILLELGQFKKTQILVGVNKDEGTAFLVYGAPGFSKDNNSIITRKEFQEGLKIFFPGVSEFGKESILFHYTDWVDDQRPENYREALGDVVGDYNFICPALEFTKKFSEWGNNAFFYYFEHRSSKLPWPEWMGVMHGYEIEFVFGLPLERRDNYTKAEEILSRSIVKRWANFAKYGNPNETQNNSTSWPVFKSTEQKYLTLNTESTRIMTKLRAQQCRFWTSFFPKVLEMTGNIDEAEWEWKAGFHRWNNYMMDWKNQFNDYTSKKESCVGL
A word on the Km: it is the substrate concentration at which the rate is half of its maximum. Regarding B1, the “Kcat, succinylcholine” value in data set [3] was 600 min⁻¹. The Michaelis constant (Km) was 35 µM in data set [3] (read-out: KM, succinylcholine) and 4.5 µM in data set [4].

B2: pBChE (protein, UniProt P06276 29-602, looked up)
Cholinesterase: EDDIIIATKNGKVRGMNLTVFGGTVTAFLGIPYAQPPLGRLRFKKPQSLTKWSDIWNATKYANSCCQNIDQSFPGFHGSEMWNPNTDLSEDCLYLNVWIPAPKPKNATVLIWIYGGGFQTGTSSLHVYDGKFLARVERVIVVSMNYRVGALGFLALPGNPEAPGNMGLFDQQLALQWVQKNIAAFGGNPKSVTLFGESAGAASVSLHLLSPGSHSLFTRAILQSGSFNAPWAVTSLYEARNRTLNLAKLTGCSRENETEIIKCLRNKDPQEILLNEAFVVPYGTPLSVNFGPTVDGDFLTDMPDILLELGQFKKTQILVGVNKDEGTAFLVYGAPGFSKDNNSIITRKEFQEGLKIFFPGVSEFGKESILFHYTDWVDDQRPENYREALGDVVGDYNFICPALEFTKKFSEWGNNAFFYYFEHRSSKLPWPEWMGVMHGYEIEFVFGLPLERRDNYTKAEEILSRSIVKRWANFAKYGNPNETQNNSTSWPVFKSTEQKYLTLNTESTRIMTKLRAQQCRFWTSFFPKVLEMTGNIDEAEWEWKAGFHRWNNYMMDWKNQFNDYTSKKESCVGL
Regarding B2, in data set [5] (setting [8]), the heart rate entry is “at baseline”, the spontaneous respirations entry is reported as “return of spontaneous respirations” and the venous oxygenation was found to be 49%. In addition, the heart rate response entry in data set [5] (0.334 mg/kg SC i.v., 48 U BChE at 1 min, 5 min post SC injection) is on record as “post-anoxic tachycardia”. For the same molecule, the “time by which all vital signs had returned to baseline” value in data set [5] (0.334 mg/kg SC i.v., 48 U BChE at 1 min, time post SC injection) is on record as at most 7 min. Further, the “protection from high-dose SC-induced apnea” value in data set [5] (high-dose SC, FIG. 21) is given as “fully protects”. Further, the “return of normal vital signs” value in data set [5] (sublethal doses of SC, FIG. 20) is given as “promotes return of normal vital signs”. In data set [6] (1 mg/kg SC i.v., 15 U (0.6 mg/kg) pBChE at 3 min, three mice), the survival result was “survived; also recorded: survival of all pBChE-treated mice”. Further, in data set [6] (respiration rate monitored, FIG. 19), the “protection from SC-induced apnea” value is recorded as “protects mice from SC-induced apnea”. The “turnover number Kcat=Vmax/[BChE]T, succinylcholine hydrolysis” value in data set [7] ([BChE]=4.74 nM) is 516 ± 33 min⁻¹. For the same molecule, the “Vmax, succinylcholine hydrolysis” value in data set [7] ([BChE]=4.74 nM, ±SEM, nonlinear regression) came out at 2.45 ± 0.16 µM/min. In addition, in data set [7] (±SEM, nonlinear regression), the “Kss (dissociation constant of substrate from peripheral binding site)” value is 2.0 ± 0.3 mM. Also, the Michaelis-Menten constant (Km) in data set [7] (±SEM, nonlinear regression, read-out: KM, succinylcholine hydrolysis) was 57 ± 7 µM. In addition, the “b (substrate activation factor)” value in data set [7] (±SEM, substrate activation when b>1) is recorded as 2.9±0.1.

The record behind these values is patent publication US20140248684A1, “COMPOSITIONS AND METHODS FOR THE PRODUCTION AND USE OF HUMAN CHOLINESTERASES” (priority 2011, published 2014).
